# B1: X5 antibody (antibody, V domains shown)
# VH: VQLLEQSGAEVKKPGSSVQVSCKASGGTFSMYGFNWVRQAPGHGLEWMGGIIPIFGTSNYAQKFRGRVTFTADQATSTAYMELTNLRSDDTAVYYCARDFGPDWEDGDSYDGSGRGFFDFWGQGTLVTVSS
# VL: ELVLTQSPGTLSLSAGERATLSCRASQSVSSGSLAWYQQKPGQAPRLLIYGASTRATGIPDRFSGSGSGTDFTLTIGRLEPEDLAVYYCQQYGTSPYTFGQGTKLEIKR
# B2: N5-i5 antibody (antibody, V domains shown)
# VH: EVQLVESGGGLVQPGGSLRLSCAASGFTFSTYAMSWVRQAPGKGLEWVSSINNSGRNTFSADSVKGRFTISRDNSKNTLFLVMNSLRAEDTAVYYCAKDLRLGGGSDYWGQGTLVTVSS
# VL: QSALTQPASVSGSPGQSITISCTGTSSDVGSYNFVSWYQQHPGKAPKLMIYEVSERPSGISNRFSGSKSGNTASLTISGLQAEDEADYYCSSYAGSTTFRVFGGGTKLTVRG
# B3: A32 antibody (antibody, V domains shown)
# VH: QVQLQESGPGLVKPSQTLSLSCTVSGGSSSSGAHYWSWIRQYPGKGLEWIGYIHYSGNTYYNPSLKSRITISQHTSENQFSLKLNSVTVADTAVYYCARGTRLRTLRNAFDIWGQGTMVTVSS
# VL: VLTQPPSASGSPGQSVTISCTGTSSDVGGYNYVSWYQHHPGKAPKLIISEVNNRPSGVPDRFSGSKSGNTASLTVSGLQAEDEAEYYCSSYTDIHNFVFGGGTKLTVLG
# Biological target: HIV-1 JRFL Env (full length), on infected primary CD4+ T cells and on virions (HIV-1 JRFL, UniProt P20871 32-503; P20871 504-848)
# Assay: cell-based or functional assay
binder,measurement,value
B1,Neutralization IC50 against JRFL (X5 + sCD4 mix),3.23 µg/mL
same,Neutralization IC50 against JRFL (X5 antibody alone),> 10 µg/mL
B2,Neutralization IC50 against JRFL (N5-i5 + sCD4 mix),> 10 µg/mL
same,Neutralization IC50 against JRFL (N5-i5 antibody alone),> 10 µg/mL
B3,Neutralization IC50 against JRFL (A32 + sCD4 mix),> 10 µg/mL
same,Neutralization IC50 against JRFL (A32 antibody alone),> 10 µg/mL
